# Measured values from the nanobody polyreactivity screen of Harvey et al. (2022).
# Experiment: yeast display, Sf9 membrane polyspecificity reagent, FACS + sequencing; frameworks hold sequencing errors
# Outline: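 Galactose-induced (36–48 hours) yeast carrying a synthetic nanobody display library were exposed to 10% biotinylated, detergent-solubilized Sf9 membrane reagent at 4 °C for 1 hour. FACS followed streptavidin microbead enrichment, using low and high (top ~1%) gates for expression (anti-HA) and reagent binding (streptavidin). Colony PCR, MiSeq 2 × 250 sequencing and CDR-length filtering followed. Labels for polyreactivity reflect the gate of origin.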
row,Sequence,polyreactivity (PSR sort gate)
1,QVQLVESGGGLVQAGGSLRLSCAASGITFRLYAMGWNRQAPGKERELVAAITGSGGRTYYADSVKGRFTISRDNAKNTVYLHMNSLKPEDTAVYYCAADWRHLRYRGGLKYDYWGQGTQVTFSS,high polyreactivity
2,QVQLVDSGGGLVQAGGSLRLSCAASGLTFYYYAMGWYRQAPGKESELVSAISATGGRTYYSDSVKGRFTISRDNAKNTVYLQMNSLKPEDTAVYYCAADTPYLRRRLGMDYWGQGTQVTVSS,high polyreactivity
3,QVQLVESGGGLVQAGGSLRLSCAASGITFVYYAMGWYRQAPGKERELVAAISKNGGSTYYADSVKGRFTISRDNAMNTVYLQMNSLKPEDTAVYYCAAEEGYPWVRYNYWGQGPQVTVSS,high polyreactivity
4,QVQLVESGGGLVQAGGSLRLSCAASGSTFGGNAMGWYRQAPGKERELVAAITVGGDSTYYADSVKGRFTISRDNAKNTVYLQMNSLKPEVTAVYYCAAGPWYKFYDWRPWFSYDYWGQGTQVTVSS,low polyreactivity
5,QVQLVESGGGLVQAGGSLRLSCAASGITFPYNAMGWYRQAPGKERELVASINSGDSTNYADSVKGRFTISRDNAKNTVYLQMNSLKPEDTAVYYCAAADYWHYKYDYWGQGTQVTVSS,low polyreactivity
6,QVQLVESGGGLLQAGGSLRLSCAASGRTIVQNAMGWYRQAPGKERELVASIRYRDGSTYYADSVKGRFTISRDNAKNTVYLQMNSLKTEDTAVYYCAVRYYRKYYYSPFDYWGQGTQVTVSS,high polyreactivity
7,QVQLVESGGGLVQAGGSLRLSCAASGSTFYYYAIGWYRQAPGKERELVAALSKSGGSTYYADSVKGRFTISRDNAKNTVYLQMNSLNTEDTAVYYCSARWYRFQGYGRPYRGIGGDYWGQGTQVTVSS,high polyreactivity
8,QVQLVESAGGLVQAGGSLRLSCAASGSTFDYYAMGWYRQAPGKERELVASITWGDGSTYYADSVKGRFTISRDNAKNTVYLQMNSLKPEDTAVYYCNADDTQLESYAPGHGYDYWGQGTQVTVSS,low polyreactivity
9,QVQLVESGGGLVQAGGSLRLSCAASGGIFGPYAMGWYRQAPGKERELVATITRNGGSTRYADSVKGRFTISRDNAKNTVYLQMNSLKPEDTAVYYCAARGYLDMGYWGQGTQVTVSS,high polyreactivity
10,QVQLVESGGGLVQAGGSLRLSCAASRSIFQSYDMGWYRQAPGKERELVAAISWSGSTTYYADSVKGRFTISRDNAKNTVYLQMNSLKPEDTAVYYCAFDSNTPDWWAVIYGYWGQGTQVTVSS,low polyreactivity
11,QVQLVESGGGLVQAGGSLRLSCAASGFTFPYYAMGWYRQAPVKERELVAAISYNGGSTYYADSVKGRFTISRDNAKNNVYLQMNSLKPEDTAVYYCNAVYYDSGVVGYYYWGQGTQVTVSS,high polyreactivity
12,QVQLVESGGGLVQAGGSLRLSCAASGLTFWDYAMGWYRQAPGKETELVAAISNDDSTYADSVKGRFTISRDNAKNTVYLQMNSLKPEDTAVYYCAAQSYYTWPEMGYWGQGTQVTVSS,low polyreactivity
13,QVQLVESGGGLVQAGGSLRLSCAASGSTFASNAMGWYRQAPGKERELVAAITSRDASTYYADSVKGRFTISRDNAKNTVYLQMNSLKPEDTAVYYCATDGYSPAAFDYWGQGTQVTVSS,low polyreactivity
14,QVQLVESGGGLVQAGGSLRLSCAASGSNFTSNGMGWYRQAPGKERELVAAITRRGGRTYYADSVKGRFTISRDNAKNTVYLQMNSLKPEDTAVYYCAAKSTSLYDYWGQGTQVTVSS,low polyreactivity
15,QVQLVESGGGLVQAGGSLRLSCAASGRIFSYYAMGWYRQAPGKERELVATISGSGGSTYYADSVKGRFTISRDNAKNTVFLQMNSLKPEDTAVYYCAATGFIFRGRVRAIPRRYNYWGQGTQVTVSS,high polyreactivity
16,QVQLVESGGGLVQAGGSLRLSCAASGSTFAVYAMGWYRQAPGKERELVATITGSGGSTYYADSVKGRFTISRDNAKNTVYLEMNSLKPEDTAVYYCAAEVVAWSLYEDFKTYDYWGQGTQVTVSS,low polyreactivity
17,QVQLVESGGGLVQAGGSLRLSCAAYGRIFRYYAMGWYRQAPGKERELVVAISRSGSSTYYADSVKGRFTISRDNAKNTVYLQMNSLKPEDTAFYYCAAKLADQTRGTTSDSWGQGTQVTVSS,high polyreactivity
18,QVQLVESGGGLVQAGGSLRFSCAASGRIFFWYAMGWYRQAPGKEWELVAAISRDGGTTYYADSVKGRFTISRDNAKNTVYLQMNSLKPEDTAVYYCNAEARSRRYRYDYWGQGTQVNVSS,high polyreactivity
19,QVQLVESGGGLVQAGGSLRLSCAASGRIFYYNAMGWSRQAPGKEWELVAAITYSGTSTYYAASVKGRFTISRDNAKYTVYLQMNSLKPEDTAVDYCNAEGDNRRDRYDYWGQGTQVTVSS,low polyreactivity
20,QVQLVESGGGLVQAGGSLRLSCAASGIILSPYTMGWYRQAPGKERELVAGISRSGGTTYYADSVKGRFTISRDNAKNTVYLQMNSLKPEDTAVYYCAAGLIYGYSGYDSWGQGTQVTVSS,low polyreactivity

row,Sequence,polyreactivity (PSR sort gate)
1,QVQLVESGGGLVQAGGSLRLSCAASGRIFIDYAMGWYRQAPGKERELVATISESGGSTYYADSVKARFTISRDNAKNTVYLQMNSLKPEDTAVYYCAAVGDNLATAEYDFWGQGTKVTVSS,low polyreactivity
2,QVQLVESGGGLVQAGGSLRLRCAASGSTFVPYAMGWYRQAPWKERELVAAITWNGGRTYYADSVKGRYTISRDNANNTVYLQMNSLKPEDTAVYFCNGLSYTWACYYWGQGTRVTVSS,high polyreactivity
3,QVQLVESGGGLVQAGGSLRLSCAPSGYTFARYAMGWSRQAPGKDRELVAAITSSGGSTYYADSVKGRFTSSRDNAKNTVYLQMNSLKPEDTAVYYCNARGFQKSDPRGYLILNYWGQGTQVTVSS,high polyreactivity
4,QVQLVESGGGLVQAGGSLRLSCAASGITIYAYAMGWSRQAPGKERELVAAINWSGGRTFYADSVKGRFTISRDNAKNTDYLQMNSLKPEDTAVYYCAAAYTRSYSWARGYDYWGQGTQVTVSS,high polyreactivity
5,QVQLVESGGGLVQAGGSLRLSCAASGRIFSRYAMGWYRQAPGKERELVAAITRRGGSTYYADSVKGRFTISRDNAKNTVYLQMNSLKPEDTAVYYCAADGQWPWWLLRYDYWGQGTQVTVSS,high polyreactivity
6,QVQLVESGGGLVQAGGSLRLSCAASGRTFLSNAMGWYRQAPGKERELVAAISNGDNTYYADSVKGRFTISRDNAKNTVVLQMNSLKPEDTAVYYCAADQYWSWIYYPVVEYDYWGEGTQVTVSS,low polyreactivity
7,QVQLVESGGGLVQAGGSLRLSCAASGRIFRKYAMGWSRQAPGKEREFVAAISSSGGITYYADSVKGRFTISRDNAKNTVYLQMNSLKPEDTAVYYCADLYPQHRYDYWGQGTQVTVSS,high polyreactivity
8,QVQLEESGGGLVQAGGSLRLSCAASGFIYRGYTMGWYRTAPGKERELVAGITSTASTNYADSVKGRFTISRDNAKNTVYLQMNSLKPEDTAVYYCAAGVPYRLRNRYYYWGQGTQVTVSS,high polyreactivity
9,QVQLVESGGGLVQAGGSLRLSCAASGRTISKNTMGWYRQAPGKERELVAAISSSGGSTNYADSVKGRFTISRDNAKNTVYLQMNSLKPEETAVYYCAADPWRFRSRPVNYWGQGTQVSVSS,high polyreactivity
10,QVQLVESGGGLVQAGGSLRLSCAASGITFYRKAMGRYRQAPGKERELVAAISRRGGITRYADSVKGRFTISRDNAKNTVYLQMNSLKPEDTAVYYCATVRYRWYSFQAERYYWGQGTQVTVSS,high polyreactivity
11,QVQLVESGGGLVQAGGSLRLSCAASGLTFVGYAMGWNRQAPGKERELVAAISGVGTTNYGDSVKGRFTISRDNAKNTVYLQMNSLKPEDTAVYYCAKAPYPVPYGLYDYWGQGTQVTVSS,low polyreactivity
12,QVQLVESGGGLVQAGGSLRLSCAASGNTIRVYAMGWYRQAPGKERELVAAITWSGSRTYYADSVKGRFTISRDNAKNTVYLQMNSLKPEDTAVYYCAARFVRPAYNYWGQGTQVTVSS,high polyreactivity
13,QVQLVESGGGLVQAGGSLRLSCAASGFTFRHYAMGWYRQAPGKERELVARIRGGGVSTYYADSVKGRFTISRDNAKNTVYLQMNSLKPEDTAVYYCNAVYESWWGDYDYWGQGTQVTVSS,high polyreactivity
14,QVQLVESGGGLLQAGGILRLSCAASGFTFKYYVMGWYRQAPGKERELDAAITSSGSTYYADSVKGRFTISRDNAKNTVYLQINRLKPEDSAVYYCAAEGQSWQRWRYNYWGQGTQVTVSS,high polyreactivity
15,QVQLVESGGGLVQAGGSLRLSCAASGSTFFGNTMGWYRQAPGKERELVAAISRRGGSTYYADSVKGRFTISRDNAKNTVYLQMTSLIPEDTAVYYCAKYYQSGGYTPGKYDYWGQGTQVTVSS,high polyreactivity
16,QVQLVESGGGLVQAGGSLRLSCAASGRTFRRYAMGWYRQAPGKERELVAAISWGAGSTRYADSVKGRFTISRDNAKNTVYLQMNSLKPEDTAVYYCAAENTRAYGMYYWGQGTQVTVSS,high polyreactivity
17,QVQLVESGGGLVQAGGSLRLSCAASGRTSQINAMGWYIQAPGKERELVAAITRGGGITYYADSVKGRFTISRDNAKNTVYLQMNSLKPEDTAVYYCATRGSSFVQYRTRYGYWGQGTQVTVSS,high polyreactivity
18,QVQLVESGGGLVQAGGSLRLSCAASGFIFTYYVMGWYRQAPGKERELVATISISDGTTYADSVKGRFTISRDNAKNTVYLQMNSLKPEDTAVYYCAKYFTTYKYDYWGQGTQVTVSS,low polyreactivity
19,QVQLVESGGGLVQAGGSLRLSCAASGSTFAANTMGWYRQAPGKERELVAAITVRGGSTYYADSVKGRFTISRDNAKNTVYLLMQSLKPEDTAVYYCAAERPPYGYLVVGYVSTQYYYWGQGTQVTVSS,low polyreactivity
20,QVQLVESGGGLVQAGGSLRLSCAASGFTFWTNAMGWYRQAPGKERELVAAITSSGGTTYYADSVKGRFTISRDNAKNTVYLQMNSLKPEDTAVYYCAAELGGYVASYYYPGYDYWGQGTQVTVSS,low polyreactivity
